One molecule from PMC7412812, “The RNA-binding protein SERBP1 functions as a novel oncogenic factor in glioblastoma by bridging cancer metabolism and epigenetic regulation” can be followed below.

This series concerns the target T1, SERBP1 (human, UniProt Q8NC51 1-408).
T1 sequence: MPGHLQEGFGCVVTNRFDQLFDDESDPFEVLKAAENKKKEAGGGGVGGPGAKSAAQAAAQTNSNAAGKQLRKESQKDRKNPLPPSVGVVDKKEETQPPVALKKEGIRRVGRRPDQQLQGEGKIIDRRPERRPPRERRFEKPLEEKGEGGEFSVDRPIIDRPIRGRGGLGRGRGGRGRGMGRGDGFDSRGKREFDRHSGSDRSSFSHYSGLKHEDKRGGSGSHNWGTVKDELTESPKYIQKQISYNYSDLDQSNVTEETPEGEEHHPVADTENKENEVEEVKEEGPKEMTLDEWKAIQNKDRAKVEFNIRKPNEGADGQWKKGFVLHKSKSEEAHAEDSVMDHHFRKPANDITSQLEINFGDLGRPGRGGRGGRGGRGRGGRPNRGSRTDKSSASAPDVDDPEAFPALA
Briefly: fluorescence polarization; 5 nM RNA, 0-1000 nM protein; FP: 10 mM HEPES pH 7.5, 50 mM KCl, room temperature. The settings on record: protein: recombinant; tags: N-terminal His6, proteolytically removed (Methods; Results call it an N-terminus His6 fusion); label: 5'-fluorescein; single strand. Background: Polarisation of emitted light reports the rotation of a fluorescent probe.

B1: SERBP1 RNA 7-mer (ssRNA)
RNA: GCGCGGG
Regarding B1, the Kd is approximately 47 nM.

As a reminder, the Kd is the equilibrium constant for the complex coming apart.
